Biological target: T1, Flag-tagged Pds5a (human, UniProt Q29RF7 1-1337)
T1 construct: Pds5a, human; insert by PCR on human cDNA; also called Flag-Pds5; source: Hek293T, transfected (alone or with eGFP-Nek2aΔMR and eGFP-Δ86-cyclin A2), taxol-arrested
T1 sequence (looked up): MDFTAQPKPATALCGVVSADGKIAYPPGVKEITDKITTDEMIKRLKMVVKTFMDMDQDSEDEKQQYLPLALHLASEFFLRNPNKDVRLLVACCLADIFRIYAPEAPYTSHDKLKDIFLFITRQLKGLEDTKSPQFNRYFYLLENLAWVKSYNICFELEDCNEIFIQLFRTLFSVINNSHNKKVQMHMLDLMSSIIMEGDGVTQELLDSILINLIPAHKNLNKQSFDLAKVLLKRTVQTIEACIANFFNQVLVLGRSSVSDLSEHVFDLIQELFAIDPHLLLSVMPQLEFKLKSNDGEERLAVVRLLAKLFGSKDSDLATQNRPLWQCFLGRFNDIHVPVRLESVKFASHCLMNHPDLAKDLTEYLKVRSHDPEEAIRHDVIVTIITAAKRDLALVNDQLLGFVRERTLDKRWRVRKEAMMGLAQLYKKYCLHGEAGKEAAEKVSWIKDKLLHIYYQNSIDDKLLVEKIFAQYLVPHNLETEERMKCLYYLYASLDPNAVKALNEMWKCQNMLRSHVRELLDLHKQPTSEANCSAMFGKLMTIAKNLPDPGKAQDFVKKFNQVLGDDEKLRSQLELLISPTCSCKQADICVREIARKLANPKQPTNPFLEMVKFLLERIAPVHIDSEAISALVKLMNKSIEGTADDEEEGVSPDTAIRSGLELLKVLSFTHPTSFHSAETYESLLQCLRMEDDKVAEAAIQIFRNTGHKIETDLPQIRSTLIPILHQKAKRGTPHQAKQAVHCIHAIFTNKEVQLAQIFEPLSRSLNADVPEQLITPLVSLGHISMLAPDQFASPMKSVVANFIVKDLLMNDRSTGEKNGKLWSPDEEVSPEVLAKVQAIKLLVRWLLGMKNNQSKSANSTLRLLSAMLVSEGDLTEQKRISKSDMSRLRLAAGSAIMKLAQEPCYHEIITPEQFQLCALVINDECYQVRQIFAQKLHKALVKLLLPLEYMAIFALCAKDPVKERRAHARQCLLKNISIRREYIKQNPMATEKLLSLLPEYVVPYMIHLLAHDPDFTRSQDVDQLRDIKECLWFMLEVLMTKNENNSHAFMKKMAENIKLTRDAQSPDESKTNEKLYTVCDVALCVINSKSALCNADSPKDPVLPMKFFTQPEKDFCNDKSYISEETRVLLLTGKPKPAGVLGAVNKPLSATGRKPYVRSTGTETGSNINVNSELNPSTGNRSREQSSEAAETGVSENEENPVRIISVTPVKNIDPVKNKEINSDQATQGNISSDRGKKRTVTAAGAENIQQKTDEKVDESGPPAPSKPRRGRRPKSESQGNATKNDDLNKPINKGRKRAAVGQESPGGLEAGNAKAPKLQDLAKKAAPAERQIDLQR
Assay: pull-down; Flag-Pds5a or -b affinity-purified on anti-Flag beads from chromatin-free lysates of taxol-arrested Hek293T cells (expressed alone or with Nek2aΔMR and/or Δ86-cyclin A2); beads incubated with a mixture of recombinant Wapl (2 µl) and sororin (0.3 µg) in 15 µl cleavage buffer with kinase inhibitors, 20 min at 37 °C; bound and unbound fractions by immunoblotting
Settings: both partners purified

binding result: binds
B1: recombinant human Wapl (natural protein, UniProt Q7Z5K2 1-1190, looked up)
chain: MTSRFGKTYSRKGGNGSSKFDEVFSNKRTTLSTKWGETTFMAKLGQKRPNFKPDIQEIPKKPKVEEESTGDPFGFDSDDESLPVSSKNLAQVKCSSYSESSEAAQLEEVTSVLEANSKISHVVVEDTVVSDKCFPLEDTLLGKEKSTNRIVEDDASISSCNKLITSDKVENFHEEHEKNSHHIHKNADDSTKKPNAETTVASEIKETNDTWNSQFGKRPESPSEISPIKGSVRTGLFEWDNDFEDIRSEDCILSLDSDPLLEMKDDDFKNRLENLNEAIEEDIVQSVLRPTNCRTYCRANKTKSSQGASNFDKLMDGTSQALAKANSESSKDGLNQAKKGGVSCGTSFRGTVGRTRDYTVLHPSCLSVCNVTIQDTMERSMDEFTASTPADLGEAGRLRKKADIATSKTTTRFRPSNTKSKKDVKLEFFGFEDHETGGDEGGSGSSNYKIKYFGFDDLSESEDDEDDDCQVERKTSKKRTKTAPSPSLQPPPESNDNSQDSQSGTNNAENLDFTEDLPGVPESVKKPINKQGDKSKENTRKIFSGPKRSPTKAVYNARHWNHPDSEELPGPPVVKPQSVTVRLSSKEPNQKDDGVFKAPAPPSKVIKTVTIPTQPYQDIVTALKCRREDKELYTVVQHVKHFNDVVEFGENQEFTDDIEYLLSGLKSTQPLNTRCLSVISLATKCAMPSFRMHLRAHGMVAMVFKTLDDSQHHQNLSLCTAALMYILSRDRLNMDLDRASLDLMIRLLELEQDASSAKLLNEKDMNKIKEKIRRLCETVHNKHLDLENITTGHLAMETLLSLTSKRAGDWFKEELRLLGGLDHIVDKVKECVDHLSRDEDEEKLVASLWGAERCLRVLESVTVHNPENQSYLIAYKDSQLIVSSAKALQHCEELIQQYNRAEDSICLADSKPLPHQNVTNHVGKAVEDCMRAIIGVLLNLTNDNEWGSTKTGEQDGLIGTALNCVLQVPKYLPQEQRFDIRVLGLGLLINLVEYSARNRHCLVNMETSCSFDSSICSGEGDDSLRIGGQVHAVQALVQLFLERERAAQLAESKTDELIKDAPTTQHDKSGEWQETSGEIQWVSTEKTDGTEEKHKKEEEDEELDLNKALQHAGKHMEDCIVASYTALLLGCLCQESPINVTTVREYLPEGDFSIMTEMLKKFLSFMNLTCAVGTTGQKSISRVIEYLEHC
notes: Wapl, human; insert by PCR on human cDNA; Isolated from mitotically arrested cells; also called GFP-SUMOstar-Wapl; source: Hek293T, transiently transfected, taxol-arrested; not shown: GFP, N-terminal, cleaved; SUMOstar, N-terminal, cleaved
